{"source": "paper PMC10906245", "about": "“Hydrogen–Deuterium Exchange Mass Spectrometry Identifies Local and Long-Distance Interactions within the Multicomponent Radical SAM Enzyme, PqqE” (ACS Central Science, 2024)", "key": {"[1]": {"biological_target": "PqqE (Methylorubrum extorquens) (UniProt B7KXC6)", "sequence (B7KXC6 whole entry)": "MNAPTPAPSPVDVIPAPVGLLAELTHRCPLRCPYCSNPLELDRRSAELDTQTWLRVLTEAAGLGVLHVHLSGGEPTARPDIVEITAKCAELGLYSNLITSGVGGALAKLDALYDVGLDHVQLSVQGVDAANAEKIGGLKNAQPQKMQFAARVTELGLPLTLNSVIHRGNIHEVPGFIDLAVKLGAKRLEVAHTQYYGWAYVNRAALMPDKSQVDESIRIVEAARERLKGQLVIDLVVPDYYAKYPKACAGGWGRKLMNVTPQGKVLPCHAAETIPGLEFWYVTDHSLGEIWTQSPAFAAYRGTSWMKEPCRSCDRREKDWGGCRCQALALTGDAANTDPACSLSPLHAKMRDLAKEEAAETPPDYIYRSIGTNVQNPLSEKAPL", "settings": "cited from earlier work"}, "[2]": {"biological_target": "PqqE in complex with PqqD (PqqDE) (Methylorubrum extorquens, UniProt P71517)", "sequence (Q49150 279-372)": "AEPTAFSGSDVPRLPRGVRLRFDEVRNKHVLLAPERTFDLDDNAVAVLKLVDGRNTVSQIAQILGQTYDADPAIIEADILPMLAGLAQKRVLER", "sequence (P71517 whole entry)": "as the sequence (B7KXC6 whole entry) above, with S286A, Q293K counted along it", "test": "HDX-MS, PqqDES versus PqqDE", "format": "binding", "settings": "no PqqA, no reductant, site at RS Fe4S4 cluster (peptide 21-32)"}, "[3]": {"biological_target": "PqqD (Methylorubrum extorquens) (UniProt Q49148)", "sequence (Q49148 whole entry)": "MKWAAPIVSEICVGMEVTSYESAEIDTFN", "settings": "cited from earlier work"}}, "note": "pKd: −log10 of the molar value."}
{"compound": "PqqD (from UniProt Q49148)", "values": [{"measurement": "pKd", "setting": "[1]", "result": 5.35}]}
{"compound": "C[S+](CC[C@H](N)C(=O)O)C[C@H]1O[C@@H](n2cnc3c(N)ncnc32)[C@H](O)[C@@H]1O", "note": "(stereo partly drawn) [SAM, S-adenosylmethionine]", "values": [{"measurement": "HDX-MS, PqqDES versus PqqDE", "setting": "[2]", "result": "When SAM was added to the PqqDE complex, we identified one type I peptide"}]}
{"compound": "PqqA (from UniProt Q49148)", "values": [{"measurement": "pKd", "setting": "[3]", "result": 6.41}]}
